Experimental data reported in patent US8852956.
Where “and” joins values, the source holds several entries; their conditions need not be identical. Equal entries are not always repeated.

Experiments:
[1] = target: Rap55, T^2-ELISA construct, cell-free expressed from PCR product with N-terminal VSV-G and C-terminal HSV epitope tags (UniProt Q8ND56); assay: dual-reporter T^2-ELISA, against the single-reporter HRP control
[2] = target: Rap55, T^2-ELISA construct, cell-free expressed from PCR product with N-terminal VSV-G and C-terminal HSV epitope tags (UniProt Q8ND56)

Sequence of UniProt Q8ND56 (Q8ND56 1-463, tags or fused parts left off): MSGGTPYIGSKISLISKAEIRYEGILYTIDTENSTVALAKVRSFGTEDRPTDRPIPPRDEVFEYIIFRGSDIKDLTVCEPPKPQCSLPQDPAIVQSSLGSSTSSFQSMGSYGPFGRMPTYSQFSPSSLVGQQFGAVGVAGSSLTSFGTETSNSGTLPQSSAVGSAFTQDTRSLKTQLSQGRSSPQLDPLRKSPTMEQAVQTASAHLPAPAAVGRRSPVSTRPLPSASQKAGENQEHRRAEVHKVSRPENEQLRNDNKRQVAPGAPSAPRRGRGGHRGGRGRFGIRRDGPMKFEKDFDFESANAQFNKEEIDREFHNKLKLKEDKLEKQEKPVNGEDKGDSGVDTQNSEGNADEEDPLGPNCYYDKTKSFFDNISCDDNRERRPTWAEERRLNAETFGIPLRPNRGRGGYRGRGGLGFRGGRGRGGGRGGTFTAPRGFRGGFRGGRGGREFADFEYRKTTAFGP

Substance: anti-VSV-G horseradish peroxidase (HRP) labeled monoclonal antibody (Clone P5D4, Roche Applied Science)
- Percent of Control (HRP detection, VSV-G tag) [1]: 96.5%
- Signal to Noise [2]: 698 and 760
